Data on one substance can be found in publication PMC10945830.

This test has as its target Anthopleura YFP (AnthoYFP) from Neon Anthopleura sola (Anthopleura sola (endogenous in tentacles)). The test can be described thus: SEC-MALS; isolated AnthoYFP pigment; self-association, tetramer; conditions of the SEC-MALS run not told in the main text.

One may read the stoichiometry N as a count of units in the complex or per binding partner. As for “Anthopleura YFP (AnthoYFP) from Neon Anthopleura sola (natural protein)”, the stoichiometry N was found to be 4.
